System: surfactant protein C (SP-C)
Test: qRT-PCR of SP-C mRNA in day 24 pluripotent stem cell differentiation cultures
Format: cell-based, murine
Conditions: KGF alone; start on day 0 of differentiation compared to later supplementation
Description: This method is based on our 2008 published differentiation protocol^3. To initiate embryoid body (EB) formation “hanging drops” composed of 6×10^2 cells in 20 μl of differentiation medium were generated (day 0 of differentiation). At day 3 of differentiation, EBs (100 EBs/dish) were transferred to non-adherent petri dishes (Greiner) and cultivated in suspension for two additional days. At day 5 of differentiation, 10 EBs/well were seeded on a 0.1% gelatin-coated 6-well culture dish and cultured until day 24 of differentiation. From day 0 to 7 the basal differentiation medium was composed of Iscove's Modified Dulbecco's Medium (IMDM, Invitrogen), 0.2 mM L-glutamine, 0.1 mM β-mercaptoethanol, 0.1 mM non-essential amino acid stock supplemented with 15% FCS and from day 7 to 24 supplemented with 15% serum replacement (Knockout™ SR, Invitrogen). […]
The differentiation medium was replaced by fresh medium every two to three days. The differentiation was stopped on day 24 and differentiation cultures were analyzed for the presence of lung epithelial cells.
qRT-PCR was used to quantify mRNA expression of typical lung epithelial markers, in particular for bronchial/bronchiolar and alveolar epithelial cells. […]

B1: KGF: recombinant human keratinocyte growth factor (Amgen), also referred to as fibroblast growth factor-7 (protein, UniProt P21781 32-194, looked up)
Fibroblast growth factor 7: CNDMTPEQMATNVNCSSPERHTRSYDYMEGGDIRVRRLFCRTQWYLRIDKRGKVKGTQEMKNNYNIMEIRTVAVGIVAIKGVESEFYLAMNKEGKLYAKKECNEDCNFKELILENHYNTYASAKWTHNGGEMFVALNQKGIPVRGKKTKKEQKTAHFLPMAIT
**Q.** With B1 as the molecule, how does the “SP-C expression by start of KGF supplementation” value read?
**A.** highest expression

Source: US9765303B2, “Method for the production of differentiated respiratory epithelial cells” (MEDIZINISCHE HOCHSCHULE HANNOVER, priority 2011, dated 2017)
